Results from PMC10770758, “Protocatechuate hydroxylase is a novel group A flavoprotein monooxygenase with a unique substrate recognition mechanism” (The Journal of Biological Chemistry, 2023).

B1: PkPobA (Pigmentiphaga kullae) (protein)
chain: MSERTQVGIVGAGPAGLLLSHLLHREGIESIVFDNRSREHVQQRLRAGVLEQGTVDLLAEVGLGERMRRLGMPQTSLDFRYAQASHRIDFAQEIGRTVMVYPQHEVVHDLIEARLAAGGDLRFDTPVTAIRDLEGPSPTILAGPEGRPVRCDFIAGCDGFHGICRDAIPASVMKAYDRVYPFGWLGILAEVPPAAPDVTWGCHETGFAMLSFRSPTRSRLYLQCEPDDDPDNWSDDRIWSALHERLDVPGMPPLIEGPIVQKGVTAMRSFQVEPLRHGALFLAGDAAHIVPPTGAKGLNSAVADIRVLGRALAAYYRQGSTRLLDSYSETCLRRMWLVHRFSAGLCTMVHSFPGQSDFARRLQRADLDYMTGSEPGRRAFSENFTGLPIEA
B2: XaPobA (Xylophilus ampelinus) (protein)
chain: MRTQVGIVGAGPAGLMLAHLLRREGIDAVVIERAAREHVRTRLRAGVLEQGTVEMLREAGVGGRIDAVGMEMHAIDFRFGGRSHRLDFHEASGGRRAWVYPQHEVVTDLMSACDAGDVPILYEAPVERIEGLEDDRARIVFGQDGAAGEITCDFVAGCDGFRGVSRGSMPAGIARGYDRIYPFGWLGILADAPPASPDVTWGCSDRGFAMMSMRSPTVTRLYLQCEPDEDPDAWSDDRIWSELHRRLDVEGMPSLREGPIRDKGVTAMRSFLSEPMQHGRLFLAGDAAHIVPPTGAKGLNSAMADIKVLAAALVDHYRHGRSDRLATYSERCLRRMWLVQRFSAALCTMVHQFPGQNEFVRRLQRADLDYMTGTHAGRLQFAENFTGLPIE
B3: PaPobA (Pseudomonas aeruginosa PAO1) (protein)
chain: MKTQVAIIGAGPSGLLLGQLLHKAGIDNVILERQTPDYVLGRIRAGVLEQGMVDLLREAGVDRRMARDGLVHEGVEIAFAGQRRRIDLKRLSGGKTVTVYGQTEVTRDLMEAREACGATTVYQAAEVRLHDLQGERPYVTFERDGERLRLDCDYIAGCDGFHGISRQSIPAERLKVFERVYPFGWLGLLADTPPVSHELIYANHPRGFALCSQRSATRSRYYVQVPLSEKVEDWSDERFWTELKARLPSEVAEKLVTGPSLEKSIAPLRSFVVEPMQHGRLFLAGDAAHIVPPTGAKGLNLAASDVSTLYRLLLKAYREGRGELLERYSAICLRRIWKAERFSWWMTSVLHRFPDTDAFSQRIQQTELEYYLGSEAGLATIAENYVGLPYEEIE

Key:
[1] = substrate: O=C(O)c1ccc(O)cc1; test: purified protein; conditions: apparent, 0.25 mM NADPH, 20 mM Tris-HCl pH 7.9, 25 °C
[2] = substrate: O=C(O)c1ccc(O)c(O)c1; test: purified protein; conditions: apparent, 0.25 mM NADPH, 20 mM Tris-HCl pH 7.9, 25 °C

| Protein | Km [1] | Km [2] | kcat [2] | kcat/Km [2] |
| --- | --- | --- | --- | --- |
| B1 | 3.7 ± 1.8 × 10^−1 mM | 3.2 ± 0.7 × 10^−1 mM | 1.1 ± 0.1 s⁻¹ | 3700 ± 600 M⁻¹ s⁻¹ |
| B2 | 4.3 ± 0.3 × 10^−1 mM | 3.7 ± 0.9 × 10^−1 mM | – | – |
| B3 | – | 1.3 ± 0.2 × 10^−1 mM | – | – |
